Source: patent publication US6780986 (UNIVERSITY OF VERMONT AND STATE AGRICULTURAL COLLEGE, dated 2004)

Columns and labels:
[1] = molecular target: the molecule itself; assay: gel shift multimers on DNA probe (self-association on DNA)
[2] = molecular target: the molecule itself; assay: DNase I footprinting on the DHFR-E probe (self-association on DNA, inferred)
Excerpt: Materials and Methods: Probe DHFR-E-top was generated by digesting pUC/E with Bam HI, end-labeling by Klenow fill-in in the presence of [α-^32P]-dATP, and digesting with Bgl II. Probe DHFR-E-bottom was generated by digesting pUC/E with Bgl II, end-labeling by Klenow fill-in in the presence of [α-^32P]-dATP, and digesting with Bam HI. Footprinting probes were purified by gel electrophoresis and Geneclean (Bio 101), and resuspended in distilled water at a specific activity of 50,000 dpm/ul. Binding reactions (50 ul) that contained 50,000 dpm of labeled probe were assembled as for gel mobility shift assays. After incubation at 37° C. for 20 min and on ice for 15 min, one volume of a 5 mM CaCl_2, 10 mM MgCl2 solution was added for one minute at room temperature, followed by the addition of 0.02 units of DNase I for 1 min. Footprinting reactions were stopped with the addition of 90 ul prewarmed stop buffer (200 mM NaCl, 30 mM EDTA, 1% SDS), extracted with phenol, ethanol precipitated, and resuspended in sequencing dye buffer. Samples were resolved by electrophoresis at 65 W for 1.5 to 3.0 hours on denaturing 8% polyacrylamide gels. The gel was dried, exposed to Kodak XAR film at –80° C., and signals were detected by autoradiography.
Fusion proteins containing hand Z2 induced multiple hypersensitive sites on the top strand of DHFR-E, including the prominent site at position 3483.

Protein | binding result [1] | binding result [2]
GST-Z2 (GST fused to the Z2 domain of RIP60, zinc fingers 6-8 plus 37 amino acids of the proline rich region) (other, Expressed in E. coli BL21 and purified on glutathione beads; also called GST-Z2(P12); GST-Z2-P12; not shown: glutathione-S-transferase (GST) purification tag, 26 kD, at the amino terminus; from vector pGEX-2T) GGDAVDRPFQCACCGKRFRHKPNLIAHRRVHTGERPHQCPECGKRFTNKPYLTSHRRIHTGEKPYPCKECGRRFRHKPNLLSHSKIHKRSEGSAQAAPGPGSPQLPAGPQESAAEPTPAVPLKPAQ | binds | 
GST-Z23 (GST fused to hands Z2 and Z3 of RIP60) (other, The start of the range is derived from the domain limits; nucleotide 682 would give residue 228; also called pCH61 product; not shown: glutathione-S-transferase (GST) purification tag from vector pGEX-2T) PRPGGDAVDRPFQCACCGKRFRHKPNLIAHRRVHTGERPHQCPECGKRFTNKPYLTSHRRIHTGEKPYPCKECGRRFRHKPNLLSHSKIHKRSEGSAQAAPGPGSPQLPAGPQESAAEPTPAVPLKPAQEPPPGAPPEHPQDPIEAPPSLYSCDDCGRSFRLERFLRAHQRHDTGERPFTCAECGKNFGKKTHLVAHSPVHSGERPFACEECGRRFSQGSHLAAHRPDHAPDRPFVCPDCGKAFRHKPYLARHRRIHTGEKPYVCPDCGKAFSQKSNLVSHRRIHTGERPYACPDCDRSFSQKSNLITHRKSHIRDGAFCCAICGQTFDDEERLLAHQKKHDV |  | binds
